{"source": "paper PMC12661054", "about": "(2025)", "binders": {"B1": {"name": "Flu-SLX4_pT1260 (peptide)", "peptide": "fluorescein-GYGTSWLVPATPLASRSR", "modifications": "also: phosphothreonine at Thr1260, position in chain not mapped"}}, "key": {"[1]": {"biological_target": "T1, GST-TOPBP1(BRCT0-2 1-290) WT (human, UniProt Q92547 1-290)", "T1 chain": "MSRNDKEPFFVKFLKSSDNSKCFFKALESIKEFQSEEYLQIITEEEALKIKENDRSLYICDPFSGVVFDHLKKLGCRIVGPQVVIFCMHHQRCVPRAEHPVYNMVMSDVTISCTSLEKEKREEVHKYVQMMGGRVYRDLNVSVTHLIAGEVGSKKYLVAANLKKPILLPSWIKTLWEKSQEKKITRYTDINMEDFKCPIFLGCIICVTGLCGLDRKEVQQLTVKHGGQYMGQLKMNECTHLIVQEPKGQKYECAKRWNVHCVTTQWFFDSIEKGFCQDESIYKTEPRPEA", "assay": "FP"}, "[2]": {"biological_target": "GST-TOPBP1(BRCT0-2 1-290) K250E (human, UniProt Q92547 1-290, K250E)", "assay": "FP"}}, "note": "Ends that are not written are not given here."}
{"binder": "B1", "values": [{"measurement": "Kd", "setting": "[1]", "result": 3.29, "unit": "µM"}, {"measurement": "Kd", "setting": "[2]", "result": 3.55, "unit": "µM"}]}
